Experimental data published in PMC7360063, “Brassinosteroids regulate root meristem development by mediating BIN2-UPB1 module in Arabidopsis” (PLoS Genetics, 2020).

T1: MBP-BIN2 (Arabidopsis, UniProt Q39011 1-380)
T1 construct: BIN2, Arabidopsis, At4g18710; source: E. coli, purified
T1 sequence (looked up): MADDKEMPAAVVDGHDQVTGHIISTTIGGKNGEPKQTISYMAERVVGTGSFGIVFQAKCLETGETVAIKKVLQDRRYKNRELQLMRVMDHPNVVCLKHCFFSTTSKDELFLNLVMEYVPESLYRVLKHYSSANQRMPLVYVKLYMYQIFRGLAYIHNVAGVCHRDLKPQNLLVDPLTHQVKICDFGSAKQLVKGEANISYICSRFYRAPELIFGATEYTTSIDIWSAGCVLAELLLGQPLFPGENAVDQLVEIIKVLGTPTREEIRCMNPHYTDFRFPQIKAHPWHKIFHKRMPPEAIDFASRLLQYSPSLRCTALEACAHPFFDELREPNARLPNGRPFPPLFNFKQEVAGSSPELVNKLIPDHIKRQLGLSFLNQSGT

B1: GST-PRE2 (natural protein, Arabidopsis, UniProt Q9LXG5 1-94, looked up)
chain: MSSSRRSRQASSSSRISDDQITDLISKLRQSIPEIRQNRRSNTVSASKVLQETCNYIRNLNKEADDLSDRLTQLLESIDPNSPQAAVIRSLING
notes: PRE2, Arabidopsis, At5g15160; source: E. coli, purified
B2: His-SUMO-UPB1 (natural protein, Arabidopsis, UniProt O22901 1-102, looked up)
chain: MGVTLEGQRKESIWVLMRRQRARRALVKKIMIRPRKSVEASRRPCRAIHRRVKTLKELVPNTKTSEGLDGLFRQTADYILALEMKVKVMQTMVQVLTETNCV
notes: UPB1, Arabidopsis, At2g47270; The phosphorylation methods speak of a 6x His tag; source: E. coli, purified
B3: GST-PRE3 (natural protein, Arabidopsis, UniProt Q9CA64 1-93, looked up)
chain: MSGRRSRSRQSSGTSRISEDQINDLIIKLQQLLPELRDSRRSDKVSAARVLQDTCNYIRNLHREVDDLSERLSELLANSDTAQAALIRSLLTQ
notes: PRE3, Arabidopsis, At1g74500; source: E. coli, purified

Columns and labels:
PRE2 = PRE2 (UniProt Q9LXG5); experiment: anti-HA co-IP, anti-GFP blot; details: reference: wild type UPB1; sites S37,S41
PRE3 = PRE3 (UniProt Q9CA64); experiment: anti-HA co-IP, anti-GFP blot; details: reference: wild type UPB1; sites S37,S41
His-SUMO-UPB1 = molecular target: B2; experiment: pull-down; His pull-down: about 30 ug His-SUMO-UPB1 with 30 ug MBP-BIN2, GST-PRE2 or GST-PRE3 in 400 ul 20 mM Tris-HCl pH 8.0, 150 mM NaCl, 0.2% Triton; about 3 h at 4 C; blots with anti-His, anti-MBP, anti-GST; details: both partners purified
MBP-BIN2 = molecular target: T1, MBP-BIN2; experiment: as above; details: both partners purified

Molecule: UPB1 (UPBEAT1) (from UniProt O22901) UPB1 S37A S41A
- binding against the reference (PRE2): stronger
- binding against the reference (PRE3): stronger

Molecule: B1
- binding result (His-SUMO-UPB1): binds

Molecule: B2
- binding result (MBP-BIN2): binds

Molecule: B3
- binding result (His-SUMO-UPB1): binds
